Source: the supplement of paper PMC10567573

B1: STK38L (parent)
chain: FCIDSENRIGNSGVEEIKGHPFFE

Variants of: B1
Assay: protein stability index of a GFP-peptide fusion (GPS, HEK-293T) (PSI 1-6); higher = more stable
Conditions: c terminus: a fixed tail appended
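Note: lentivirally expressed fusions sorted by FACS into six bins by GFP to DsRed ratio, PSI derived from sequencing read proportions per bin multiplied by bin number.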

Row | Variant | protein stability index
1 | FCIDSENRIGNSGYEEIKGHPFFE [V14Y] | 2.96
2 | FCIDSENRIGNSGFEEIKGHPFFE [V14F] | 1.6
3 | FCIDSENRIGNSGGEEIKGHPFFE [V14G] | 2.01
4 | FCIDSENRIGNSGIEEIKGHPFFE [V14I] | 2.1
5 | FCIDSENRIGNSGAEEIKGHPFFE [V14A] | 3.13
6 | FCIDSENRIGNSGDEEIKGHPFFE [V14D] | 2.68
7 | FCIDSENRIGNSGEEEIKGHPFFE [V14E] | 2.96
8 | FCIDSENRIGNSGREEIKGHPFFE [V14R] | 2.32
9 | FCIDSENRIGNSGHEEIKGHPFFE [V14H] | 2.06
10 | FCIDSENRIGNSGLEEIKGHPFFE [V14L] | 1.54
11 | FCIDSENRIGNSGPEEIKGHPFFE [V14P] | 2.46
12 | FCIDSENRIGNSGTEEIKGHPFFE [V14T] | 2.29
13 | FCIDSENRIGNSGSEEIKGHPFFE [V14S] | 2.32
14 | FCIDSENRIGNSGCEEIKGHPFFE [V14C] | 2.27
15 | FCIDSENRIGNSGMEEIKGHPFFE [V14M] | 2.47
16 | FCIDSENRIGNSGKEEIKGHPFFE [V14K] | 2.72
17 | FCIDSENRIGNSGNEEIKGHPFFE [V14N] | 2.8
18 | FCIDSENRIGNSGWEEIKGHPFFE [V14W] | 1.96
19 | FCIDSENRIGNSGQEEIKGHPFFE [V14Q] | 2.74
20 | FCIDSENRIGRSGVEEIKGHPFFE [N11R] | 2.31
21 | FCIDSENRIGASGVEEIKGHPFFE [N11A] | 2.11
22 | FCIDSENRIGMSGVEEIKGHPFFE [N11M] | 1.83
23 | FCIDSENRIGQSGVEEIKGHPFFE [N11Q] | 2.73
24 | FCIDSENRIGTSGVEEIKGHPFFE [N11T] | 1.81

Row | Variant | protein stability index
25 | FCIDSENRIGCSGVEEIKGHPFFE [N11C] | 2.3
26 | FCIDSENRIGFSGVEEIKGHPFFE [N11F] | 1.88
27 | FCIDSENRIGPSGVEEIKGHPFFE [N11P] | 2.12
28 | FCIDSENRIGWSGVEEIKGHPFFE [N11W] | 1.57
29 | FCIDSENRIGHSGVEEIKGHPFFE [N11H] | 2.38
30 | FCIDSENRIGSSGVEEIKGHPFFE [N11S] | 1.99
31 | FCIDSENRIGDSGVEEIKGHPFFE [N11D] | 2.73
32 | FCIDSENRIGYSGVEEIKGHPFFE [N11Y] | 2.12
33 | FCIDSENRIGKSGVEEIKGHPFFE [N11K] | 2.03
34 | FCIDSENRIGESGVEEIKGHPFFE [N11E] | 3.11
35 | FCIDSENRIGLSGVEEIKGHPFFE [N11L] | 1.65
36 | FCIDSENRIGGSGVEEIKGHPFFE [N11G] | 2.35
37 | FCIDSENRIGVSGVEEIKGHPFFE [N11V] | 2
38 | FCIDSEYRIGNSGVEEIKGHPFFE [N7Y] | 1.8
39 | FCIDSEVRIGNSGVEEIKGHPFFE [N7V] | 1.22
40 | FCIDSEWRIGNSGVEEIKGHPFFE [N7W] | 4.28
41 | FCIDSEMRIGNSGVEEIKGHPFFE [N7M] | 2.71
42 | FCIDSESRIGNSGVEEIKGHPFFE [N7S] | 2.09
43 | FCIDSEQRIGNSGVEEIKGHPFFE [N7Q] | 1.51
44 | FCIDSERRIGNSGVEEIKGHPFFE [N7R] | 1.56
45 | FCIDSETRIGNSGVEEIKGHPFFE [N7T] | 2.17
46 | FCIDSEPRIGNSGVEEIKGHPFFE [N7P] | 2.21
47 | FCIDSENEIGNSGVEEIKGHPFFE [R8E] | 3.56
48 | FCIDSENVIGNSGVEEIKGHPFFE [R8V] | 2.02

Row | Variant | protein stability index
49 | FCIDSENLIGNSGVEEIKGHPFFE [R8L] | 2.34
50 | FCIDSENGIGNSGVEEIKGHPFFE [R8G] | 2.8
51 | FCIDSENKIGNSGVEEIKGHPFFE [R8K] | 2.37
52 | FCIDSENIIGNSGVEEIKGHPFFE [R8I] | 2.79
53 | FCIDSENAIGNSGVEEIKGHPFFE [R8A] | 2.67
54 | FCIDSENTIGNSGVEEIKGHPFFE [R8T] | 3.15
55 | FCIDSENSIGNSGVEEIKGHPFFE [R8S] | 2.55
56 | FCIDSENFIGNSGVEEIKGHPFFE [R8F] | 2.45
57 | FCIDSENPIGNSGVEEIKGHPFFE [R8P] | 2.71
58 | FCIDSENQIGNSGVEEIKGHPFFE [R8Q] | 2.83
59 | FCIDSENCIGNSGVEEIKGHPFFE [R8C] | 2.17
60 | FCIDSENNIGNSGVEEIKGHPFFE [R8N] | 2.94
61 | FCIDSENWIGNSGVEEIKGHPFFE [R8W] | 2.87
62 | FCIDSENDIGNSGVEEIKGHPFFE [R8D] | 3.9
63 | FCIDSENMIGNSGVEEIKGHPFFE [R8M] | 2.67
64 | FCIDSENHIGNSGVEEIKGHPFFE [R8H] | 2.72
65 | FCIDSENYIGNSGVEEIKGHPFFE [R8Y] | 2.15
66 | FCIDSENRIGNSGVFEIKGHPFFE [E15F] | 1.73
67 | FCIDSENRIGNSGVMEIKGHPFFE [E15M] | 2.51
68 | FCIDSENRIGNSGVKEIKGHPFFE [E15K] | 2.22
69 | FCIDSENRIGNSGVIEIKGHPFFE [E15I] | 1.46
70 | FCIDSENRIGNSGVREIKGHPFFE [E15R] | 2.08
71 | FCIDSENRIGNSGVVEIKGHPFFE [E15V] | 2.52
72 | FCIDSENRIGNSGVDEIKGHPFFE [E15D] | 1.62

Row | Variant | protein stability index
73 | FCIDSENRIGNSGVPEIKGHPFFE [E15P] | 1.98
74 | FCIDSENRIGNSGVHEIKGHPFFE [E15H] | 2
75 | FCIDSENRIGNSGVAEIKGHPFFE [E15A] | 1.99
76 | FCIDSENRIGNSGVYEIKGHPFFE [E15Y] | 1.92
77 | FCIDSENRIGNSGVTEIKGHPFFE [E15T] | 2.08
78 | FCIDSENRIGNSGVGEIKGHPFFE [E15G] | 2.08
79 | FCIDSENRIGNSGVQEIKGHPFFE [E15Q] | 1.57
80 | FCIDSENRIGNSGVSEIKGHPFFE [E15S] | 1.96
81 | FCIDSENRIGNSGVLEIKGHPFFE [E15L] | 1.9
82 | FCIDSENRIGNSGVCEIKGHPFFE [E15C] | 2.68
83 | FCIDSENRIGNSGVNEIKGHPFFE [E15N] | 1.64
84 | FCIDSENRMGNSGVEEIKGHPFFE [I9M] | 2.03
85 | FCIDSENRSGNSGVEEIKGHPFFE [I9S] | 2.82
86 | FCIDSENRFGNSGVEEIKGHPFFE [I9F] | 1.9
87 | FCIDSENRKGNSGVEEIKGHPFFE [I9K] | 2.19
88 | FCIDSENRQGNSGVEEIKGHPFFE [I9Q] | 2.65
89 | FCIDSENRGGNSGVEEIKGHPFFE [I9G] | 2.58
90 | FCIDSENREGNSGVEEIKGHPFFE [I9E] | 3.42
91 | FCIDSENRLGNSGVEEIKGHPFFE [I9L] | 1.99
92 | FCIDSENRCGNSGVEEIKGHPFFE [I9C] | 2.38
93 | FCIDSENRNGNSGVEEIKGHPFFE [I9N] | 2.2
94 | FCIDSENRWGNSGVEEIKGHPFFE [I9W] | 1.58
